Biological target: the molecule itself
Test: SEC; Superdex 75, 200 μl of 20-40 μM protein, 150 mM NaCl, 10 mM sodium phosphate, 0.03% NaN3, pH 7.4, 0.5 ml/min

B1: EK2 de novo polypeptide (AEEAKKA repeats) (other)
chain: SAEEAKKAAEEAKKAAEEAKKAAEEAKKAAEEAKKAAEEAKKAAEEAKKAAEEAKKAAEEAKKAAEEAKKAAEEAKKAAEEAKKAAEEAKKAAEEAKW
stoichiometry N: ~2
